Assay: soluble on expression in E. coli; label from the status in PepcDB or PDB records

MEDTAEENNESIDDQPSTSTATDPNQTRETEKEKGDDEMFRLLQATDEILENKAKSMNLSSLNVRSILHHLIKYPSTIDVLLGIRENDDLPSVRNMRSRKKPDDSGASSTVNTPKKFGALRIEDRGPKSFLDLEYEEDDEYDDDYIEENDTSTRNKLNAGSEEDEENDDEEEIEDEGEDEDDEEQDELEEDGEHEITGSEACTSGQNDTMHALLFDETSEDVQNEEDYVLNMTLNDTRAESVAPIPTLDNVDDDGFYRDFVTGINRTEKDNDNLEVLDTEDDPDDEDYNVCADDGLNVEDWDETRQDKTTQIPRHELKALMIDTLLAEKEIPLNAFPEEAINGEEHRKSQKVKDAEVYERINTSISSSSESCSLLKDSLATFRPQELQQLNMQLEQHVQLLTQLVVTCHHDVNLSHVRNSSQLMMNELDDIRQQKIYPTVFDVRNLDAAIESCHDINAFDAVDESFLKYAENTEGYGGIALRPEAAVVLSRSNAIRYPALLPSRQPFFIETPIPFLSEEDLMLAVALLQFAHLPRRGEKEMIDRYTAIQQHCLPARSSYKIRTHLKSMRRSDKNPIHQIMQAAEKGVCKLVLPLKSWQESDTPICQWPPASQPGWYRRFQETFNVTEERKILRKHVSTMVLTPVKNKDRQDQEASEATFESGEEGEDDEFVNMGTAPDGRKIIMGREHIEDLVHQLIKQNEISPSKRRKNPTPMKLSTMIQLEEAEKRIADSQKNSCGGQTISALSNVSGDSNVDNNGTHEKELMPSTSSIDSLESINNQETSKFPRPLPMSDQPTLNTSCHITTTTCSVSYEDVDVGTLKKSYVEITASKYETNSNSCFSYPIPPTPGRRSPDDFDDYFMDLESNSLMWPQTPYAVTDENPQTPRGFSASESSEPIDFSSLGKATSLDTEEIVFQSTSCQRPMGYCSDFGEFSNSSSLPEEIPVPSHQRTPQESAIEDDSSMPGLDMVPLYEEDVEECIIEDIEEEEAPIKQGLVNSRPPLRFKKEVKAGITNLAPSRKRTRIEREAMGSVGLDDEQLHDKQKENIMRKVIEDVNQRLFMHTDTYQRFKEAITDENLTDFEKVTRTIIILANHPELLNLVLLNAPPEAVISDLQCDHNYQSYKVAIEMIMDIERYITAAKLKEPSLKGLFRYIQSFLEDKPNMTDEQATKRFYELFGQDRPLWKKLESRFWCLPYKARPRLENYEYIDLTGLETMSKREKRDWNSIPPRFETVDDIDQVMGSVYRASKNEPPSNLVVKCGEFCIRNDDETYTQLEITERLWTRKDDISLLTSYNEALKTIPNFTVSQMPSLISDLSFGEKSIIARLQYLLTELKSLD
soluble on expression in E. coli: soluble

MGSDKIHHHHHHMSIDFYNQNASSFYASTVEVDSSSLLEQFTPYLPKGGSVLDAGCGSGRDSKRLIELGFHVDAFDASAALATLAQQLLGKPVRVATFMQFTSTLQYDGIWACASLLHVSKASLPDAFAHLASMLKSGGAFYCSFKYGQGEVERDGRSFTHCDEALLAELLTGSPLVIDKVWLTTDLRVGRENEQWLNAVLLKR
soluble on expression in E. coli: not soluble

MLKEVPIKRRQSTKIYVGNVPVGGDAPIAVQSMTNTRTTDIEATIAQIKALERVGADIVRVSVPTMDAAEAFKVIKQQVNVPLVADIHFDYRIALKVAEYGVDCLRINPGNIGNEERIRAVVDCAKDKNIPIRIGVNAGSLERDLQEKYGEPTPQALLESALRHVEILDRFNFDQFKVSVKASDVFLAVESYRLLAKAIKQPIHLGITEAGGARAGSVKSAIGLGLLLSEGIGDTLRVSLAADPVDEVKVGFDILKSLRIRSRGINFVACPTCSRQEIDVIATVNALEQRLEDILTPMDVSIIGCVVNGPGEALVSDLGVTGSNKMSGFYLDGVRQKERFDNDKLIDQLEAKIRAKVAQQHHRIAIEQILEHHHHHH
soluble on expression in E. coli: not soluble

MASLLFRQARVFDGESVHTDYDVLVVDGKIAQLGSAIEAPADAEIIEAHGKTLLPGLIDSHTHAKPPALEMALTFGVTTELDMFSDPAWMTEQRREAQTRNSMADVRSAMTGASVAGGHPTGLVGVVFDKQCPVLENAEDAEAFVAARVAEGADYFKLVIEDGTILGHEVPRLSDEMVYALVAAAHAQGLMAVAHAMTVELALLAIRAGVDGLMHVAGDRLMTDEEVAEVAQSGIFVVPTLSTMASVYGDKHGQHLAEDDRTRPLLSDAWAENLCQCWHLTNPGSTANVIDATRRLYEAGVDVLAGSDAVTVGVPGTAHGVSMHGELELLVDCGLSPAAALRAATLLPAKRFSLDDRGRIAPGLQADLVLVDGDPTTDVRQTLSIEGVWRRGEQAPRIGQAEGVGTASAASAVAG
soluble on expression in E. coli: soluble

MSNNEIVFVTGNANKLKEVQSILTQEVDNNNKTIHLINEALDLEELQDTDLNAIALAKGKQAVAALGKGKPVFVEDTALRFDEFNGLPGAYIKWFLKSMGLEKIVKMLEPFENKNAEAVTTICFADSRGEYHFFQGITRGKIVPSRGPTTFGWDSIFEPFDSHGLTYAEMSKDAKNAISHRGKAFAQFKEYLYQNDF
soluble on expression in E. coli: not soluble

MSLAFVPHVPRHSRGDNPPSASTASPAVLTLTGERTIPDLDIENYWFRRHQVVYQRLAPRCTARDVLEAGCGEGYGADLIACVARQVIAVDYDETAVAHVRSRYPRVEVMQANLAELPLPDASVDVVVNFQVIEHLWDQARFVRECARVLRGSGLLMVSTPNRITFSPGRDTPINPFHTRELNADELTSLLIDAGFVDVAMCGLFHGPRLRDMDARHGGSIIDAQIMRAVAGAPWPPELAADVAAVTTADFEMVAAGHDRDIDDSLDLIAIAVREGHHHHHH
soluble on expression in E. coli: soluble

MGSDKIHHHHHHWFMPFDNWLYQLQNADPVEISSSGFEIAVIDYSKDGSESGEYSPEEIKIMVDAGVVPVAYVNIGQAEDYRFYWKESWYTNTPEWLGEEDPAWPGNYFVKYWYNEWKEIVFSYLDRVIDQGFKGIYLDRIDSFEYWAQEGVISRRSAARKMINFVLEIAEYVRERKPDMLIIPQNGENILDFDDGQLASTVSGWAVENLFYLKTIPLEENETKSRLEYLIRLNRKGKFILSVDYVDDGSDSFENISRILDYYEKAKRNGCIPYAARSDLELDEMNVIEGIQPPEALKDYESRTYR
soluble on expression in E. coli: not soluble

MSLMDYGIDIWGNENFIIKNGKVCINYEKKPAIIDIVKELRDDGYKGPLLLRFPHLIQKQIENIYGNFNKARKEFGYKGGFNAVYPLKVNQYPGFVKNLVKLGKDYNYGLEAGSKAELLLAMAYNNEGAPITVNGFKDRELINIGFIAAEMGHNITLTIEGLNELEAIIDIAKERFKPKPNIGLRVRLHSAGVGIWAKSGGINSKFGLTSTELIEAVNLLKENKLLEQFTMIHFHLGSQITEIHPLKKALNEAGNIYTELRKMGAKNLKAINLGGGLAVEYSQFKNEKSRNYTLREYANDVVFILKNIAEQKKDLEPDIFIESGRFVAANHAVLIAPVLELFSQEYAENKLILKKQNPKLIDELYDLYKSIKPSNALEYLHDSIDHLESILTLFDLGYVDLQDRSNAEILTHLITKKAILLLGDKQNPADLLAIQDEVQERYLVNFSLFQSMPDFWGLEQNFPIMPLDRLDEEPTRSASIWDITCDSDGEISYSKDKPLFLHDVDVEKENYFLGFFLVGAYQEVLGMKHNLFTHPTEAIISINEKGYEVEGIIEAQSILDTLEDLDYDIHAIMDILNERISNSKLVNDKQKKHILGELYLFLNDNGYLKSIGVEGHHHHHH
soluble on expression in E. coli: soluble

MGHHHHHHSSGLVPRGSATERQDRNLLYEHAREGYSALPLLDMESLCAYPEDAARALDLRKGELRSKDLPGIISTWQELRQLREQIRSLEEEKEAVTEAVRALVVNQDNSQVQQDPQYQSLRARGREIRKQLTLLYPKEAQLEEQFYLRALRLPNQTHPDVPVGDESQARVLHVVGDKPAFSFQPRGHLEIAEKLDIIRQKRLSHVSGHRSYYLRGAGALLQHGLVNFTLNKLIHRGFTPMTVPDLLRGVVFEGCGMTPNAKPSQIYNIDPSRFEDLNLAGTAEVGLAGYFMDHSVAFRDLPIRMVCSSTCYRAETDTGKEPWGLYRVHHFTKVEMFGVTGPGLEQSSELLEEFLSLQMEILTELGLHFRVLDMPTQELGLPAYRKFDIEAWMPGRGRFGEVTSASNCTDFQSRRLHIMFQTEAGELQFAHTVNATGCAVPRLLIALLESYQQKDGSVLVPPALQPYLGTDRITTPTHVPLQYIGPNQPQKPRLPGQPASS
soluble on expression in E. coli: soluble

MAACGNPSAAVKFERLPTFAEPTHYNVRLSPCLNQFSFDGHATIDVTIKEATDVLKVHAQSLLIQSVSLITQPGDASKSLETSYDDKLNILTIKLPTTMQPQKVQLDFKFVGELNDKMRGFYRSQYKDKNGTEKFLASTQFESTYARYAFPCFDEPIYKATFDVTLEVENHLTALSNMNVISETPTADGKRKAVTFATSPKMSSYLVAFAVGELEYISAQTKSGVEMRVYTVPGKKEQGQYSLDLSVKCIDWYNEWFDIKYPLPKCDLIAIPDFSMGAMENWGLVTYREIALLVDPGVTSTRQKSRVALVVAHELAHLWFGNLVTMKWWTDLWLKEGFASFMEYMFVGANCPEFKIWLHFLNDELASGMGLDALRNSHPIEVEIDNPNELDEIYDSITYAKSNSVNRMLCYYLSEPVFQKGLRLYLKRFQYSNAVTQDLWTALSEASGQNVNELMSGWTQQMGFPVLKVSQRQDGNNRILTVEQRRFISDGGEDPKNSQWQVPITVAVGSSPSDVKARFLLKEKQQEFTIEGVAPGEWVKLNSGTTGFYRVEYSDEMLTAMLPDIASRRMPVLDRFGLINDLSALLNTGRVSIAQFVQVAASSAKEDEYVVWGAIDEGMSKLLACAREMSEDTLKSAKQLVVKMFEQTGAELGFAEQAGEDSQKMMLRSLVQARLARAGHQPTIDKFTQMFNDFLEKGTPIHPDIRLATFGVVARYGGKEGFDKLMNLRETTTFQEIERQTMVAMSQTPEESLLAQLFEYGFEKNKVRPQDQLYLFLGTGATHMGQQYAWKYFCEHIKEFLDKYGGANSSLFQRCLKFAGESFGNEKRAVEFQDFFCNCNVLSDTDRQTLARPIGQTVEAIRLNARLLESNRQIIENLLKQSNV
soluble on expression in E. coli: not soluble

MSLNLTIGTSKFNPPFEVWSGNNSSLYGFDIDLMQEICRRLHATCTFEAYIFDDLFPALKNREVDLVIASMIITDERKKHFIFSLPYMESNSQYITTVDSKISTFDDLHGKKIGVRKGTPYARQVLSENRNNQVIFYELIQDMLLGLSNNQVDASLMDYEAAKYWMASEPYAYKLIGKKYKLIGKKISIGEGYSIMANPDQFVLIKKINKILLEMEADGTYLRLYSEYFEGHHHHHH
soluble on expression in E. coli: soluble

MKVTKADIVISAVKPEQYPDGDLPEIALAGRSNVGKSSFINKILNRKKLVRISSKPGKTQTLNFFLINEMMHFVDVPGYGYAKVSKTERAAWGKMIETYFTTREQLDAAVLVVDLRHKPTNDDVMMYDFLKHYDIPTIIIATKADKIPKGKWQKHLKVVKETLDIESGDEVVLFSSETGLGKEEAWKAIHKFTKTKNA
soluble on expression in E. coli: not soluble

MGSDKIHHHHHHMECTSYLVDTFDQLPPINEESLADIDNDLFSGLYYGGVDTPTTRQLSQRVADLEKGKFAVLTPSGQSAFNLLLTTFVKPGDHVLAGDTIVYSTRWLLNHFENIGVKIEYFTPSEAATLKNKLTLKTKLIIFENPGAFTYEVMDISAIVESRHDHPALIVADNTWAASLFHHPLSLGADISLISMSKYHGAVEGISLGALITKRKDLYVNLKTTSALTGNHVSSHACSAAIRSISTLGARLSFQMSTTRKVLRSLKPLPLLKQAIHPILQNTELHLQNSMIYGFNSLFTAEFSCSRNELISRLNRLNLIKIGYGWGGTTSLVNLIDTHDMPSAKRLGINSECARIYLGLEDPDELTRDLTNAFTQ
soluble on expression in E. coli: not soluble

MGSDKIHHHHHHMISYGELIRQIRQSKKISQKEVYTGVISKSYAIEFEKGTHAISSLLLEKIVAKLMVSMEEFFLMYHQEALPEKEDFWEAYARTCKTDEASAWESLYQKISLEKGKVNQVKSAAIKLELDHIKGKQVADKKAVQILENYLIEAVFWTLQDIFLFTRMMHYLPLKSRVPFYYKLLNTLDRYRHFERGRSISQSALASIMDDFIEKNEIEYMELMIKSLEKISEDCDGTYSKILCMYYRGIVRWREGEKREGSEEIEQAVAILRALGYENKAAEYETMYRQFARENNDIKTME
soluble on expression in E. coli: not soluble

From the DeepSol protein solubility set
